The results in this text go back to PMC8285372 (2021).

Assay [1] concerns the target KRAS G12V peptide on HLA-A*11:01 (human). The assay is described as follows: mean peptide concentration for 50% NFAT activation; J^ASP90 reporter cells 1:1 with HLA-SCD K562 pulsed with titrated peptide (10 μM–1 pM), 16–20 h; full-length, on cells.
For assay [2], the target named is T1, KRAS G12R peptide on HLA-B*07:02 (human).
T1 peptide: GARGVGKSAL
The description is as above.

B1: TCRA11V (TCR)
alpha TRAV12-1 TRAJ8 CDR3: CAVNPPDTGFQKLVF
beta TRBV28 TRBJ2-7 CDR3: CASSLSFRQGLREQYF
B1: the EC50 of peptide in assay [1] is 0.15 nM.

B2: TCRB7R (TCR)
alpha TRAV4 TRAJ41 CDR3: CLVGDFNSNSGYALNF
beta TRBV7-2 TRBJ1-2 CDR3: CASKVYGYTF
In turn, B2 returned an EC50 of peptide in assay [2] of 3.38 nM.
